Molecular target: T1, human Claudin-1 (CLDN1) on EGI-1 cholangiocarcinoma cells (human, UniProt O95832 1-211)
T1 construct: whole, on cells; Endogenously expressed on human CCA cell lines; also called non-junctional CLDN1
T1 sequence (looked up): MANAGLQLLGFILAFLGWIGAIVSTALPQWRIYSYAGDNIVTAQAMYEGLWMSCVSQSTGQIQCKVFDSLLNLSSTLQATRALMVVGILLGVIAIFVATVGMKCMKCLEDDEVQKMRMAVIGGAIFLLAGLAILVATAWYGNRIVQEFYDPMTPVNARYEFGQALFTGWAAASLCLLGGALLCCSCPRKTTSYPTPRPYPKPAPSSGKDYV
Experiment: flow cytometry on EGI-1 cells, 10 µg/ml antibody, Alexa647 secondary, delta-MFI against isotype control
Description: A first-line chemotherapy treatment for advanced CCA is cisplatin plus gemcitabine (Borbath et al., 48(7) Eur J Cancer 990-996 (May 2012)). To investigate the expression of CLDN1 upon treatment with cisplatin and gemcitabine, 1.5×10⁵ CCA EGI-1 cells were treated with cisplatin (100 nM) and gemcitabine (10 nM) for 24 hours. Cells were then collected, and CLDN1 expression was assessed by flow cytometry and Western Blot using CLDN1 specific Abs.
For flow cytometry, cells were incubated with the anti-CLDN1 mAb H3L3 or the isotype control mAb at a concentration of 10 μg/ml in triplicates per condition. Following incubation with the primary antibody for 1 hour, cells were washed and incubated with human Alexa647-conjugated secondary antibody at 4° C. for 45 minutes. Cells were subsequently washed and fixed with 2% paraformaldehyde (PFA). Data were acquired using Cytoflex B2R2V0 (Beckman Coulter) and analyzed using CytExpert 2.1 and FlowJo v10 (Beckman Coulter). CLDN1 expression was calculated as the difference of the mean fluorescence intensities of cells stained with anti-CLDN1 mAb H3L3 and isotype control mAb. The experiment was independently repeated three times.

B1: anti-CLDN1 mAb H3L3 (antibody, human IgG1, kappa, V domains shown)
VH: QVQLVESGGGVVQPGRSLRLSCLGSGFSFSSYGMNWVRQAPGKGLEWVASISPSGSYFYYADSVKGRFTISRDNSKNTLYLQMTSLRAEDTAIYYCARLPGFNPPFDHWGQGTLVTVSS
VL: DIQMTQSPSSLSASVGDRVTITCKASQNVGGNVDWYQWKPGKAPKLLIYGASNRYTGVPDRFRGSGSGTDFTLTISSLQPEDVATYYCLQYKNNPWTFGGGTKVEIKR
notes: also called CLDN1-specific mAb H3L3; anti-CLDN1 H3L3 antibody
B1: binds.

Reference: US20250326835A1, “USE OF ANTI-CLAUDIN-1 ANTIBODIES TO TREAT CHOLANGIOCARCINOMA” (Alentis Therapeutics AG, priority 2022, published 2025)
